US10227617B2, “Sequestration of carbon dioxide with hydrogen to useful products” (UNIVERSITY OF GEORGIA RESEARCH FOUNDATION, INC., priority 2012, dated 2019)
In brackets after ≈: the same amount, converted by molar mass.

Experiments:
[1] = 70° C and 1 atm; cited from earlier work
[2] = tested on: CC(C)(COP(=O)(O)OP(=O)(O)OC[C@H]1O[C@@H](n2cnc3c(N)ncnc32)[C@H](O)[C@@H]1OP(=O)(O)O)[C@@H](O)C(=O)NCCC(=O)NCCSC(=O)CCCO; assay: 4-hydroxybutyryl-CoA dehydratase (Msed_1321), coupled spectrophotometric assay; type: biochemical, Metallosphaera sedula; conditions: other: Msed_1321, 70° C.
Excerpt: A polypeptide having 4-hydroxybutyryl-CoA dehydratase activity means the polypeptide catalyzes the conversion of 4-hydroxybutyryl-CoA to crotonyl-CoA. The 4-hydroxybutyryl-CoA dehydratase activity of a polypeptide may be determined by routine methods known in the art. An example of such a polypeptide includes an amino acid sequence encoded by coding sequence Msed_1321 of Genbank accession NC_009440 and disclosed at SEQ ID NO:15.
Heterologous expression of M. sedula genes in E. coli. Msed_0406, Msed_1321, Msed_0399, and Msed_0656 were amplified from genomic DNA using primers from IDT Technologies (Coralville, Iowa). Msed_0406 was cloned into pET46-Ek/LIC with an N-terminal His6 tag, as described in Example 1. Msed_1321 was cloned with an N-terminal His6 tag into a modified pETA vector, into which the anaerobic hya promoter from E. coli had been inserted to allow for anaerobically-regulated expression (Sun et al., 2010. PLoS One 5:e10526). Msed_0399 was cloned into pET21b without a His-tag, and Msed_0656 was cloned into pCDF-Ek/LIC with an N-terminal His6 tag. All four constructs were individually cloned into NovaBlue GigaSingles E. coli competent cells and selected by growth on LB-agar supplemented with antibiotic. Sequences were confirmed by Eton Biosciences, Inc. (Durham, N.C.). Next, the plasmids were transformed into E. coli Rosetta 2 (DE3) cells for protein expression. Rosetta strains containing pET46-0406, pET21b-0399, and pCDF-0656 were grown and expressed aerobically at 37° C. for 16 h in Studier's auto-inducing medium ZYM-5052 (Studier, 2005. Protein Expression and Purification 41:207-234). Rosetta cells containing pETA-1321 plasmid were grown in a 2 L Applikon bioreactor (37° C., 800 rpm, pH 6.7, 0.5 slpm air) in Studier's non-inducing medium ZYM-505 with 0.5 mM FeCl3. […]
4-hydroxybutyryl-CoA dehydratase (Msed_1321). […] Enzyme activity was measured […] in a coupled spectrophotometric assay at 70° C. […]

O=C(O)CCCO = assay: acyl-CoA ligase activity of mutant Msed_1353-G424, discontinuous DTNB assay; type: biochemical, Metallosphaera sedula; conditions: other: Msed_1353-G424, 75° C., pH 7.9
Excerpt: In one embodiment, an example of a polypeptide having 4-hydroxybutyrate:CoA ligase activity is an amino acid sequence encoded by coding sequence Msed_1353 of Genbank accession NC_009440 and disclosed at SEQ ID NO:18, provided that the amino acid at residue 424 is not the tryptophan present in a wild type Msed_1353. In one embodiment, the amino acid at residue 424 is alanine, valine, leucine, isoleucine, or glycine. In one embodiment, the amino acid at residue 424 is alanine, valine, leucine, glycine. In one embodiment, the amino acid at residue 424 is glycine. The amino acid sequence disclosed at SEQ ID NO:18 includes the substitution of glycine for tryptophan. Another example is a polypeptide having structural similarity to the amino acid sequence SEQ ID NO:18, provided the amino acid at residue 424 is not tryptophan.
Two assays were used to measure ligase activity, one spectrophotometric and one using high-performance liquid chromatography (HPLC). A discontinuous assay was used to measure substrate-dependent disappearance of CoA at 75° C. The reaction mixture (600 μl) contained 100 mM MOPS-KOH (pH 7.9), 5 mM MgCl2, 2.5 mM ATP, 0.15 mM CoA, and purified enzyme. At each time point, 80 μl of reaction mixture was added to 80 μl cold 5,5′-dithiobis-(2-nitrobenzoic acid) (DTNB). A time point (0 min) was taken before heating. The reaction mixture was incubated for 2 min at 75° C., followed by addition of substrate. Additional time points were taken at 30, 60, 90, 120, and 180 sec after addition of substrate. Absorbance was measured at 412 nm to determine free CoA concentration, based on the concentration of 2-nitro-5-thiobenzoate dianion (NTB^2−) (ε412=14,150 M^−1 cm^−1) (Hawkins et al., 2011, ACS Catal. 1, 1043-1050, Riddles et al., 1983, Methods in Enzymology 91, 49-60). Enzymes were kinetically characterized by varying the concentration of the […] substrate from 0.05 mM to 12 mM, while the other substrate concentrations were held constant. Measurements for specific activity were taken under saturating substrate concentrations (10 mM). Formation of the CoA ester was also confirmed using HPLC (Waters). The reaction mixture (0.15 ml) contained 100 mM potassium phosphate (pH 7.9), 10 mM MgCl2, 2 mM ATP, 0.5 mM CoA, 10 mM substrate, and purified enzyme. The reaction was incubated for 3 min at 75° C., quenched with 15 μl 1M HCl, filtered with a 10 kDa spin column (Amicon YM-10) to remove the protein, and loaded onto a reversed-phase C18 silica-based column (Shodex C18-4E, 4.6×250 mm). The mobile phase was 50 mM sodium phosphate buffer (pH 6.7) with 2% methanol.
M. sedula genes encoding acyl-CoA synthetases were amplified from genomic DNA using primers synthesized by Integrated DNA Technologies (Coralville, Iowa). […]

[3] = 4-hydroxybutyrate-CoA synthetase assay (DTNB; HPLC confirmation); type: biochemical
Description: A time point (0 min) was taken before heating.
The soluble, heat-treated lysate was loaded onto the column with binding buffer (50 mM sodium phosphate, 300 mM NaCl, 20 mM imidazole, pH 7.4) and the his-tagged enzyme removed with elution buffer (50 mM sodium phosphate, 300 mM NaCl, 500 mM imidazole, pH 7.4).

[4] = CoA synthetase assay (DTNB), substrate propionate; type: biochemical; conditions: saturating substrate concentrations
Description: Two assays were used to measure ligase activity, one spectrophotometric and one using high-performance liquid chromatography (HPLC). A discontinuous assay was used to measure substrate-dependent disappearance of CoA at 75° C. The reaction mixture (600 μl) contained 100 mM MOPS-KOH (pH 7.9), 5 mM MgCl2, 2.5 mM ATP, 0.15 mM CoA, and purified enzyme. At each time point, 80 μl of reaction mixture was added to 80 μl cold 5,5′-dithiobis-(2-nitrobenzoic acid) (DTNB). A time point (0 min) was taken before heating. The reaction mixture was incubated for 2 min at 75° C., followed by addition of substrate. Additional time points were taken at 30, 60, 90, 120, and 180 sec after addition of substrate. Absorbance was measured at 412 nm to determine free CoA concentration, based on the concentration of 2-nitro-5-thiobenzoate dianion (NTB^2−) (ε412=14,150 M^−1 cm^−1) (Hawkins et al., 2011, ACS Catal. 1, 1043-1050, Riddles et al., 1983, Methods in Enzymology 91, 49-60). Enzymes were kinetically characterized by varying the concentration of the acyl-CoA substrate from 0.05 mM to 12 mM, while the other substrate concentrations were held constant. Measurements for specific activity were taken under saturating substrate concentrations (10 mM). Formation of the CoA ester was also confirmed using HPLC (Waters). […]

[5] = substrate: CCCCC(=O)O; assay: purified protein, by the assay type; conditions: other: Msed_0406, 75° C., pH 7.9; 75.0 °C
[6] = substrate: O=C(O)CCCO; assay: purified protein, by the assay type
Description: (§1) Two assays were used to measure ligase activity, one spectrophotometric and one using high-performance liquid chromatography (HPLC). A discontinuous assay was used to measure substrate-dependent disappearance of CoA at 75° C. The reaction mixture (600 μl) contained 100 mM MOPS-KOH (pH 7.9), 5 mM MgCl2, 2.5 mM ATP, 0.15 mM CoA, and purified enzyme. At each time point, 80 μl of reaction mixture was added to 80 μl cold 5,5′-dithiobis-(2-nitrobenzoic acid) (DTNB). A time point (0 min) was taken before heating. The reaction mixture was incubated for 2 min at 75° C., followed by addition of substrate. Additional time points were taken at 30, 60, 90, 120, and 180 sec after addition of substrate. Absorbance was measured at 412 nm to determine free CoA concentration, based on the concentration of 2-nitro-5-thiobenzoate dianion (NTB^2−) (ε412=14,150 M^−1 cm^−1) (Hawkins et al., 2011, ACS Catal. 1, 1043-1050, Riddles et al., 1983, Methods in Enzymology 91, 49-60). Enzymes were kinetically characterized by varying the concentration of the acyl-CoA substrate from 0.05 mM to 12 mM, while the other substrate concentrations were held constant. Measurements for specific activity were taken under saturating substrate concentrations (10 mM). Formation of the CoA ester was also confirmed using HPLC (Waters). The reaction mixture (0.15 ml) contained 100 mM potassium phosphate (pH 7.9), 10 mM MgCl2, 2 mM ATP, 0.5 mM CoA, 10 mM substrate, and purified enzyme. The reaction was incubated for 3 min at 75° C., quenched with 15 μl 1M HCl, filtered with a 10 kDa spin column (Amicon YM-10) to remove the protein, and loaded onto a reversed-phase C18 silica-based column (Shodex C18-4E, 4.6×250 mm). The mobile phase was 50 mM sodium phosphate buffer (pH 6.7) with 2% methanol.

[7] = substrate: CCC(=O)O; assay: purified protein, by the assay type; conditions: other: Msed_0406, 75° C., pH 7.9; 75.0 °C
[8] = substrate: O=C(O)CCO; assay: purified protein, by the assay type; conditions: other: Msed_0406, 75° C., pH 7.9; 75.0 °C
Description: as §1

[9] = substrate: CCCC(=O)O; assay: purified protein, by the assay type; conditions: other: Msed_0406, 75° C., pH 7.9; 75.0 °C
Description: as §1

[10] = substrate: CC(=O)O; assay: purified protein, by the assay type; conditions: other: Msed_0406, 75° C., pH 7.9; 75.0 °C
[11] = other: Msed_0406, 75° C., pH 7.9, 75.0 °C

O=O [oxygen]
solubility [1]: 600 µM (≈ 19.2 µg/mL)

Metallosphaera sedula 4-hydroxybutyryl-CoA dehydratase Msed_1321, SEQ ID NO:15, recombinant (Metallosphaera sedula DSM 5348)
Km [2]: 150 µM | Vmax [2]: 2.2 µmol/min/mg | kcat [2]: 2.1 s⁻¹

[HH] [hydrogen]
solubility [1]: 600 µM (≈ 1.21 µg/mL)

Metallosphaera sedula acetate/propionate synthetase Msed_1353 variant Msed_1353-G424 (Trp424 to Gly, W424G), SEQ ID NO:18 (Metallosphaera sedula DSM 5348; W424G)
Km (O=C(O)CCCO): 1130 µM | Vmax (O=C(O)CCCO): 2.3 µmol/min/mg | kcat (O=C(O)CCCO): 2.5 s⁻¹ | kcat/Km (O=C(O)CCCO): 2180 M⁻¹ s⁻¹

B1: Metallosphaera sedula acyl-CoA synthetase (4-hydroxybutyrate:CoA ligase) Msed_0406, SEQ ID NO:14, recombinant (Metallosphaera sedula DSM 5348) (protein)
chain: MVTVQDFFRKFIEFQNSPNEKSLQEIVKLVGQLDLRRFNWVRDVFEDIHVKERGSKTALIWRDINTGEEAKLSYHELSLMSNRVLSTLRKHGLKKGDVVYLMTKVHPMHWAVFLAVIKGGFVMVPSATNLTVAEMKYRFSDLKPSAIISDSLRASVMEEALGSLKVEKFLIDGKRETWNSLEDESSNAEPEDTRGEDVIINYFTSGTTGMPKRVIHTAVSYPVGSITTASIVGVRESDLHLNLSATGWAKFAWSSFFSPLLVGATVVGINYEGKLDTRRYLGEVENLGVTSFCAPPTAWRQFITLDLDQFRFERLRSVVSAGEPLNPEVIKIWKDKFNLTIRDFYGQTETTAMVGNFPFLKVKPGSMGKPHPLYDIRLLDDEGKEITKPYEVGHITVKLNPRPIGLFLGYSDEKKNMESFREGYYYTGDKAYFDEEGYFYFVGRGDDVIKTSDYRVGPFEVESALLEHPAVAEAAVVGVPDTVRWQLVKAYIVLKKGYMPSKELAEEIREKMKTLLSPYKVPRIIEFVDELPKTISGKIRRVELRKREEEKRKKGEVGQNEYVF
specific activity ([3]; 4HB, saturating substrate concentrations): 1.8 µmol/min/mg | production of 4HB-CoA from 4HB and CoA ([3]; reversed-phase HPLC): confirmed | rate of ligation of CoA to 4HB ([3]; substrate 4HB): 1.69 µmol·min/mg | specific activity [4]: 15.1 µmol/min/mg | Km [5]: 740 µM | Vmax [5]: 5.2 µmol/min/mg | kcat [5]: 5.6 s⁻¹ | kcat/Km [5]: 7500 M⁻¹ s⁻¹ | Km [6, 11]: 2000 µM | Vmax [6, 11]: 1.7 µmol/min/mg | kcat [6, 11]: 1.8 s⁻¹ | kcat/Km [6, 11]: 910 M⁻¹ s⁻¹ | Km ([6]; other: Msed_0406, text): 1900 µM | Km [7]: 380 µM | Vmax [7]: 15.1 µmol/min/mg | kcat [7]: 16.2 s⁻¹ | kcat/Km [7]: 43000 M⁻¹ s⁻¹ | Km [8]: 810 µM | Vmax [8]: 2.4 µmol/min/mg | kcat [8]: 2.6 s⁻¹ | kcat/Km [8]: 3200 M⁻¹ s⁻¹ | Km [9]: 320 µM | Vmax [9]: 7.9 µmol/min/mg | kcat [9]: 8.4 s⁻¹ | kcat/Km [9]: 26000 M⁻¹ s⁻¹ | Km [10]: 2030 µM | Vmax [10]: 6 µmol/min/mg | kcat [10]: 6.4 s⁻¹ | kcat/Km [10]: 3200 M⁻¹ s⁻¹
